From PMC3655264, “A Large-Scale Conformational Change Couples Membrane Recruitment to Cargo Binding in the AP2 Clathrin Adaptor Complex” (Cell, 2010) come the findings set out here.

What is called Kd is the free concentration of one partner at which half of the binding sites on the other are occupied at equilibrium, for simple one-to-one binding. Broadly, the koff is the rate constant with which the complex falls apart. Low readings indicate slow dissociation, high ones fast dissociation. In general, kon refers to the second-order rate constant of association. Low readings indicate slow association, high ones fast association.

Assay [1] has as its target fluorescein-labeled TGN38 YxxΦ peptide (ASDYQRL). Briefly: fluorescence polarisation; stopped-flow polarized fluorescence, pre-steady-state kinetics; AP2 preincubated for 30 min with 200 μM heparin; 1 μM fluorescein peptide. On the technique in general: In fluorescence polarisation assays a small probe gives low polarisation when free and higher when bound to something large.

Assay [2] shares this target. The assay is described as follows: fluorescence polarisation; equilibrium anisotropy titration with 500 μM polymeric heparin (~50 subunits); 20 nM fluorescein peptide; 21°C; 10 mM Tris pH 8.7, 250 mM NaCl.
Assay [3] shares this target. The assay is described as follows: fluorescence polarisation; stopped-flow polarized fluorescence, pre-steady-state kinetics, without heparin; 1 μM fluorescein peptide, protein at pseudo-first order excess; single exponential fits, kapp = koff + kon.C.
Assay [4] has as its target lipid-linked TGN38 sorting motif peptide (…) displayed in liposomes. The assay is described as follows: SPR. Particulars: for Kd: 10% PtdIns4,5P2 + 1% TGN38 liposomes, five AP2 concentrations ranging from 50 nM to 1 μM.
For assay [5], the target named is lipid-linked phosphorylated CD4 dileucine sorting signal peptide (…(SP)…) displayed in liposomes. The assay is described as follows: SPR. Particulars: for Kd: 10% PtdIns4,5P2 + 1% CD4P liposomes, five AP2 concentrations ranging from 50 nM to 1 μM.
In assay [6] the target is liposomes displaying both TGN38 YxxΦ peptide (m4) and CD4 dileucine peptide (m5). Briefly: SPR. Particulars: 10% PtdIns4,5P2 + 0.5% TGN38 + 0.5% CD4 liposomes; five AP2 concentrations ranging from 50 nM to 1 μM.
The target in assay [7] is liposomes containing 10% PtdIns4,5P2 (no cargo peptide). The assay is described as follows: SPR. Conditions: 10% PtdIns4,5P2 liposomes; five AP2 concentrations ranging from 50 nM to 1 μM.
Assay [8] addresses lipid-linked TGN38 sorting motif peptide (…) displayed in liposomes. Briefly: not stated; unpublished data (S.H.); binding of AP2 cores to YxxΦ/PtdIns4,5P2-containing liposomes.
Assay [9] shares this target. Briefly: SPR; peptido-liposomes with 10% PtdIns4,5P2 and lipid-linked peptide captured on an L1 sensor surface (BIAcore 3000, T100); AP2 cores injected; 10 mM Tris pH 8.7, 250 mM NaCl, 1 mM DTT; corrected for binding to PC/PE or PtdIns4,5P2 liposomes; apparent.
The target in assay [10] is lipid-linked phosphorylated CD4 dileucine sorting signal peptide (…(SP)…) displayed in liposomes. Described as above.
Target sequence in this assay (peptide, as listed by the source): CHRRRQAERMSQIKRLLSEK

AP2 core (recombinant; α trunk, β2 trunk, myc-tagged μ2, σ2) (from UniProt P63010;P84092;P62743) αPIP- (substitutions in the PtdIns4,5P2-binding site of α; not printed), sequence (P62743 whole entry, looked up, stated change not applied): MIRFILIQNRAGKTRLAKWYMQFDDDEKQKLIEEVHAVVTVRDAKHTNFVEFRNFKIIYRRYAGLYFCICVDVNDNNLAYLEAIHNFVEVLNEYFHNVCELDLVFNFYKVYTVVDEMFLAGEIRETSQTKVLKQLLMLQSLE
AP2 core (recombinant; α trunk, β2 trunk, myc-tagged μ2, σ2) (from UniProt P63010;P84092;P62743) αPIP- (substitutions in the PtdIns4,5P2-binding site of α; not printed), sequence (P84092 whole entry, looked up, stated change not applied): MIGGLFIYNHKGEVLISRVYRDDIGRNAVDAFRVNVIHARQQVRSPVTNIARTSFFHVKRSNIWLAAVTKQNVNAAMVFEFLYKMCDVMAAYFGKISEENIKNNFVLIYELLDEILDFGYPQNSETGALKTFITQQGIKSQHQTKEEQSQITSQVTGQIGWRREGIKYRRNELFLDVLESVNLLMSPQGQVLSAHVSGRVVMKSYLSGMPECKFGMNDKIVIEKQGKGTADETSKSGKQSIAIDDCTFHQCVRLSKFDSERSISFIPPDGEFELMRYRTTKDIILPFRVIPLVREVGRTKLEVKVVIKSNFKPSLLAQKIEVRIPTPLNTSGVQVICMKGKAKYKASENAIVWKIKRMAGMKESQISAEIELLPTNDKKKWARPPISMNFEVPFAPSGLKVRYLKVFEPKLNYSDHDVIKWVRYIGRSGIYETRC
AP2 core (recombinant; α trunk, β2 trunk, myc-tagged μ2, σ2) (from UniProt P63010;P84092;P62743) αPIP- (substitutions in the PtdIns4,5P2-binding site of α; not printed), sequence (P63010 whole entry, looked up, stated change not applied): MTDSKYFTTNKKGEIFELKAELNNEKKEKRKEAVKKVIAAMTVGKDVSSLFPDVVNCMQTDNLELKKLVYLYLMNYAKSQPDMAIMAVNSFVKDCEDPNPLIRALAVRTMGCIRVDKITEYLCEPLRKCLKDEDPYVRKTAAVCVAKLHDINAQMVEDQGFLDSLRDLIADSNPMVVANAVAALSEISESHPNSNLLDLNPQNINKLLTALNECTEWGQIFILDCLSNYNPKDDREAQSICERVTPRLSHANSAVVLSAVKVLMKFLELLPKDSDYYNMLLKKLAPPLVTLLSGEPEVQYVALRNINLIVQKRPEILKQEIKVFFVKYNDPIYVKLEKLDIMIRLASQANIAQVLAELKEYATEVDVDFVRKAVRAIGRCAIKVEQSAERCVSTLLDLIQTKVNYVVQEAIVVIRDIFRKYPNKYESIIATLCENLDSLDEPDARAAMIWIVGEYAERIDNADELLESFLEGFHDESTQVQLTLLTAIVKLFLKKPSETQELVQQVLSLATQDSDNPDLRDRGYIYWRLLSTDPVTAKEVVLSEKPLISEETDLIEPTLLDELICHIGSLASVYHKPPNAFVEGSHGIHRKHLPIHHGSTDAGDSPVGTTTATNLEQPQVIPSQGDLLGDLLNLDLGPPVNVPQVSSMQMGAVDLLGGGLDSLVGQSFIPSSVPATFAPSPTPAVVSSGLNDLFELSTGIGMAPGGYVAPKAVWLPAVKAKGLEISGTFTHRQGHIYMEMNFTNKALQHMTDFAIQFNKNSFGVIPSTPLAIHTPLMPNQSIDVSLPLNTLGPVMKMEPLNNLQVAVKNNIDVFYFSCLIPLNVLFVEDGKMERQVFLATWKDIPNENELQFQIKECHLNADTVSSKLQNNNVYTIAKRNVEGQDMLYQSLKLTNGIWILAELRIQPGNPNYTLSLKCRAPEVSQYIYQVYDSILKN
AP2 core (recombinant; α trunk, β2 trunk, myc-tagged μ2, σ2) (from UniProt P63010;P84092;P62743) μ2PIP- (μ2 5K>E and μ2 KRR>E combined; individual residues not printed), sequence (P62743 whole entry, looked up, change not shown): as the sequence (P62743 whole entry, looked up, stated change not applied) above
AP2 core (recombinant; α trunk, β2 trunk, myc-tagged μ2, σ2) (from UniProt P63010;P84092;P62743) μ2PIP- (μ2 5K>E and μ2 KRR>E combined; individual residues not printed), sequence (P84092 whole entry, looked up, change not shown): as the sequence (P84092 whole entry, looked up, stated change not applied) above
AP2 core (recombinant; α trunk, β2 trunk, myc-tagged μ2, σ2) (from UniProt P63010;P84092;P62743) μ2PIP- (μ2 5K>E and μ2 KRR>E combined; individual residues not printed), sequence (P63010 whole entry, looked up, change not shown): as the sequence (P63010 whole entry, looked up, stated change not applied) above
μ2^PIP-Core (AP2 core with the μ2 mutations 5K>E and KRR>E combined), sequence (P62743 whole entry, looked up, change not shown): as the sequence (P62743 whole entry, looked up, stated change not applied) above
μ2^PIP-Core (AP2 core with the μ2 mutations 5K>E and KRR>E combined), sequence (P84092 whole entry, looked up, change not shown): as the sequence (P84092 whole entry, looked up, stated change not applied) above
μ2^PIP-Core (AP2 core with the μ2 mutations 5K>E and KRR>E combined), sequence (P63010 whole entry, looked up, change not shown): as the sequence (P63010 whole entry, looked up, stated change not applied) above
AP2 core (recombinant; α trunk, β2 trunk, myc-tagged μ2, σ2) (from UniProt P63010;P84092;P62743) β2:K5E; β2:K12E; β2:K26E; β2:K27E; β2:K29E; β2:K36E, sequence (P62743 whole entry, looked up, stated change not applied): as the sequence (P62743 whole entry, looked up, stated change not applied) above
AP2 core (recombinant; α trunk, β2 trunk, myc-tagged μ2, σ2) (from UniProt P63010;P84092;P62743) β2:K5E; β2:K12E; β2:K26E; β2:K27E; β2:K29E; β2:K36E, sequence (P84092 whole entry, looked up, stated change not applied): as the sequence (P84092 whole entry, looked up, stated change not applied) above
AP2 core (recombinant; α trunk, β2 trunk, myc-tagged μ2, σ2) (from UniProt P63010;P84092;P62743) β2:K5E; β2:K12E; β2:K26E; β2:K27E; β2:K29E; β2:K36E, sequence (P63010 whole entry, looked up, stated change not applied): as the sequence (P63010 whole entry, looked up, stated change not applied) above

Regarding “AP2 core (recombinant; α trunk, β2 trunk, myc-tagged μ2, σ2) (from UniProt P63010 1-592; P84092 1-236; P84092 237-435; P62743 1-142) (complex)”, in [1], the Kd worked out at 3.5 µM, the koff came to 2 s⁻¹, the kon stood at 1e+06 M⁻¹ s⁻¹ and the relaxation time at 15 μM AP2 with heparin was found to be 0.059 s. In assay [1], the relaxation time with heparin came out at 0.056 s. In assay [2], this substance returned a Kd of 3.4 µM. In addition, in assay [3], the Kd worked out at 4 mM and the relaxation time at 30 μM AP2 without heparin is 62.5 s.
Regarding “AP2 core (recombinant; α trunk, β2 trunk, myc-tagged μ2, σ2) (from UniProt P63010;P84092;P62743) αPIP- (substitutions in the PtdIns4,5P2-binding site of α; not printed)”, the response in [4] (200 nM AP2 core, PtdIns4,5P2/TGN38 liposomes, corrected for non-specific binding to PC/PE liposomes, baseline about 80 RU, parent: est. 1800, read off a plot) is 330 RU; in assay [5] (200 nM AP2 core, PtdIns4,5P2/CD4P liposomes, corrected for non-specific binding to PC/PE liposomes, baseline about 40 RU, parent: est. 1400, read off a plot) it was 180 RU. In addition, the Kd in assay [4] is greater than 30000 nM; in assay [6], greater than 30 µM.
For the substance “AP2 core (recombinant; α trunk, β2 trunk, myc-tagged μ2, σ2) (from UniProt P63010;P84092;P62743) β2:K5E; β2:K12E; β2:K26E; β2:K27E; β2:K29E; β2:K36E”, the Kd in assay [6] is greater than 30 µM.
In the case of “AP2 core (recombinant; α trunk, β2 trunk, myc-tagged μ2, σ2) (from UniProt P63010;P84092;P62743) μ2 5K>E (five lysines of the second basic region of C-μ2 to glutamate; residues not printed)”, the Kd in assay [4] was determined as 520 nM; in assay [5] it was 950 nM; in [7] it was 11 µM.
For “AP2 core (recombinant; α trunk, β2 trunk, myc-tagged μ2, σ2) (from UniProt P63010;P84092;P62743) μ2 KRR>E (three basic residues of the third basic region of C-μ2 to glutamate; residues not printed)”, in that order: 330 nM, 850 nM and 7.5 µM.
Take “AP2 core (recombinant; α trunk, β2 trunk, myc-tagged μ2, σ2) (from UniProt P63010;P84092;P62743) μ2PIP- (μ2 5K>E and μ2 KRR>E combined; individual residues not printed)”: the Kd was 6200 nM in [4], 2500 nM in [5], 30 µM in assay [7] and 0.28 µM in assay [6].
As to “isolated C-terminal domain of μ2 (C-μ2) (from UniProt P84092 1-435) (domain or fragment)”, in [3], the Kd worked out at 0.0005 mM and the relaxation time at 15 μM C-μ2 was determined as 0.0073 s.
On to “μ2Thr156Glu AP2 core (from UniProt P63010 1-592; P84092 1-236; P84092 237-435; P62743 1-142) (complex)”, for which, in assay [8], the fold less binding than phosphorylated AP2 core worked out at 20 fold and the fold weaker binding than wild-type core worked out at 4 fold.
Consider “μ2^PIP-Core (AP2 core with the μ2 mutations 5K>E and KRR>E combined) (from UniProt P63010 1-592; P84092 1-236; P84092 237-435; P62743 1-142) (complex)”, for which, in assay [9], the fold inhibition of binding to PtdIns4,5P2/YxxΦ liposomes against the wild-type core came to 20 fold. Besides, the fold reduction of binding to PtdIns4,5P2/[ED]xxxL[LI] liposomes against the wild-type core in assay [10] worked out at 3 fold.
